Paper PMC6338834

T1: Mcm10 (Saccharomyces cerevisiae, UniProt P32354 1-571)
T1 sequence: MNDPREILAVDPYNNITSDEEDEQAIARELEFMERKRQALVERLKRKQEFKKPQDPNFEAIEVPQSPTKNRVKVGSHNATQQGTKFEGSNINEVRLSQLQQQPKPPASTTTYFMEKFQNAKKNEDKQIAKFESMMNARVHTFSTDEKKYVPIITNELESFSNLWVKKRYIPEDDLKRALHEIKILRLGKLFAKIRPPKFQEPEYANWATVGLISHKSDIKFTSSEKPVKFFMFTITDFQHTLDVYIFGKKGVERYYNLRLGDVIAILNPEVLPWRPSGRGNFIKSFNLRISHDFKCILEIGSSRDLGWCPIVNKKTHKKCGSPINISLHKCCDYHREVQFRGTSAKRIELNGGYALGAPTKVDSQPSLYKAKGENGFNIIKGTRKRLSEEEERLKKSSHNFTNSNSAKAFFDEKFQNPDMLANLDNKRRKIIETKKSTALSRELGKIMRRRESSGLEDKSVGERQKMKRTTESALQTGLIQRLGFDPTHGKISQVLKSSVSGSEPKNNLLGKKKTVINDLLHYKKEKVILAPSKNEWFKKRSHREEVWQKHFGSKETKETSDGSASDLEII

B1: 3' FITC 60mer ssDNA (ssDNA)
DNA: TTTTTTTTTTTTTTTTTTTTTTTTTTTTTTGGTGAGGGTTGGGAAGTGGAAGGATGGGCT
B2: 5' flap lagging strand oligo (ssDNA)
DNA: TTTTTTTTTTTTTTTTTTTTTTTTTTTTTTTTTTTTTTTTTTTTTTTTTGACGCTGCCGAATTCTGGCTTGCTAGGACATTACAGGATCGTTCGGTCTC
modifications: last 5 linkages at 3' end thiodiester (phosphorothioate)

Legend:
Mcm10 = biological target: T1, Mcm10; experiment: fluorescence anisotropy
RPA = RPA (Saccharomyces cerevisiae, UniProt P22336;P26754;P26755 1-621;1-273;1-122); experiment: EMSA
RPA, sequence (P22336 whole entry, chain 1 of 3): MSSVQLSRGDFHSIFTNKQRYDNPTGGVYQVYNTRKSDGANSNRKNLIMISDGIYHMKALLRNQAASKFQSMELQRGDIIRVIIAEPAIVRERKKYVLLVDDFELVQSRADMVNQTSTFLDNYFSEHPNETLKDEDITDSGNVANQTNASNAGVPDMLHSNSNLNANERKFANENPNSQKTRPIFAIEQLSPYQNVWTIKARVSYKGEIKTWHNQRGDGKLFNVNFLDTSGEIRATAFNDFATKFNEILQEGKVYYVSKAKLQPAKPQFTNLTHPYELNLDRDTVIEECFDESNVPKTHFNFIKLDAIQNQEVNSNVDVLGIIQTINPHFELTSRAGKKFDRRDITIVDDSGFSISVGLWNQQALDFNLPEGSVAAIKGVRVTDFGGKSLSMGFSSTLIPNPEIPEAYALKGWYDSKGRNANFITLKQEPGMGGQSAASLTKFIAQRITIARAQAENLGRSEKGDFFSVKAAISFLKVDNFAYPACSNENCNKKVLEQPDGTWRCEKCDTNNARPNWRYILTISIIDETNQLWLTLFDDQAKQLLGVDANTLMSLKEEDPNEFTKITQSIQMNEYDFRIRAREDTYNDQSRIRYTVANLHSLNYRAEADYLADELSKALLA
RPA, sequence (P26754 whole entry, chain 2 of 3): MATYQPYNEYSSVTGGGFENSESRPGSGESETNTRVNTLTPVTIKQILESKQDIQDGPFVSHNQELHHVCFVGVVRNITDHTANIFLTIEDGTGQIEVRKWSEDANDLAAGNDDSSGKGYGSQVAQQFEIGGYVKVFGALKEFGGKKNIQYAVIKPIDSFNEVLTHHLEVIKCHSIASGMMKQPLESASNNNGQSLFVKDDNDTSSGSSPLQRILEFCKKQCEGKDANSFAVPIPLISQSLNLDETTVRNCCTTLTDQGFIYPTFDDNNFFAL
RPA, sequence (P26755 whole entry, chain 3 of 3): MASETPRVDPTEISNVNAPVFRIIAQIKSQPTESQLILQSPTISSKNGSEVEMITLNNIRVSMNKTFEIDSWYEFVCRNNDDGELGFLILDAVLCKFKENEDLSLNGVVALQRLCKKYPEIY

| Binder | Kd (Mcm10) | binding result (RPA) |
| --- | --- | --- |
| B1 | 50 nM |  |
| B2 |  | binds |
